Assay: soluble on expression in E. coli; label from the status in PepcDB or PDB records

Sequence | soluble on expression in E. coli
MSLSVLNGYQLIISDVDGVIVREGDPIWENIQALRNIQNNGVKIIFVTNNSGFSRILLSRQLSYLGLKVTPDMIITSGLAAAIYMKEKLNVKSVFAVGEEGLIEELKNHGFLVFSSAESERILPDAVVMGLDRLSTYDKLSLAMRCISKGSKFIVTNMDRLWPAKDGLKLGAGALASSIIYALRRDPDFIAGKPNTWIVEIAMRISNVKKLDKILVIGDQIETDIQMGYNIGADTALVLTGISNVDDVDRSNVKPKYVVNTLLDLLEGHHHHHH | soluble
MSLSWRNRIQIFLAPDRVDLTGIARGIRPVQQFRQSGVCVQENDSRQQWKAPLRLLEQMIGQMDDRFRRGSELHITLSNHFVRYGVIAPQPSLANPDELMAYAGFQMREIYGERIDDWELSLSTWDPYGGALCAAIARDLQSELIMFARQYDTRFACIEPYLAAALDHWSKRLVEKQVWFVLVETGRFCLVVLSEGAWRCARNQRVVENLQEELLAALEQESIILSPDRSVERVYVFAPELTGQLPVHDLRWQFVRLPDEKHPAPSYFPGVTGMDDSQNH | not soluble
MSLTAAGRWRDVEMMAYKQDDAAPFRDVTRQLLFSDPRLACEWRYFEVAAGGYSTLEKHDHVHGVMIHRGKGQCLVGHHVSDVAVGDLVFIPPQTWHQFRANAGDVLGFLCLVNAERDREGHHHHHH | not soluble
MSLTADPPACTVPAAGGSSTHKLVNGGADKLIFKIKSSNNNEYRIVPVFGFVDPSGSKDVVITRTAGAPKEDKLVVHFAPAPADATDAQAAFAAVTPAGTVTIPMSATA | not soluble
MSLTAENILNRNFEANKPNQKWFTDISYLNYGKGQKAYISAIIDRYDLSIIVYKVSKRNDLKLVMDILKLALQNNDASNTILHSDRGFQYTSKHYKNYLDTHNVKISMSKAGSCLDNQPIEAFWGTLKSEYYYRNQFSTYEDLETGISEYINYYMNKRYVPKFDGLTPNEYRNVSEGHHHHHH | not soluble
MSLTANREAIDMARVAAGAAAAKLADDVVVIDVSGQLVITDCFVIASGSNERQVNAIVDEVEEKMRQAGYRPARREGAREGRWTLLDYRDIVVHIQHQDDRNFYALDRLWGDCPVVPVDLSANSAGAQEGHHHHHH | soluble
MSLTASQQPTASQDPTRIDALVIGAGFGGMYAVHKLSGMGLSVQGFEAGGDVGGVWYWNRYPGARCDLMSLDYCYSFSPDIEQEWTWSEQFAAQSEILAYANFVADRLDLRRHFLFETWVTGAAYDEAANVWRVTVDDGRVFEATYCVMASGPLSIPKGVPFDGADDFKGEILLAAKWPHTPVSFEGKRVGLVGTGSTGIQIVPEVAKTAGALTVFQRTPSFTLPMRNVTLEPDYVAELKRNYAGIRQVARNSPLGGVRPQSTRPFFSVTPEQRRALMEDSWARGGLSFLGTFSDLLVNPEANEQVAEFVRSKISEVVTDPVTAEKLKPRGYPIFARRPCLDTHYYETFNLPHVKLHDCLESPIVKITPAGLLTETGEVELDVLIFATGYDGLTGALLNFDVVGRGGLQLRDKWRDGAKSHLGLMIASFPNLFLVCGPNGPAALANIITLDQQNIDWIADAITHMRQEGLATIEPTEGAEQGWMDMVYGMAELTLVSKANTWYVGGNISGKPRGLSMYTGGFQRYSEACRLAAEKGYEDFVFEKAATKQGARSEGHHHHHH | soluble
MSLTDIHPPLLLIDTSTRVCSVAVAAAGTIISQRVSHVGNSHAANIGVFVQEVLTEAIGLGVKPSIVALSSGPGSYTGLRIGSSIAKGICFGLGIPLVSVPTLELIAEAARPLSQPDWLICPMIDARRMEVYTALFDSKGKALTDTLPLVIDNDSFSEELKKRNILFVGDGAEKCRPFLSHPNAHFSKNVIYPLALYMLHPALSRIETSSYEDVAYWEPFYLKEFVATVAKNKVIPRTQTTEGHHHHHH | not soluble
MSLTDLFAREPYAPLAERLRPHTLDDVVGQEHLIGEGKPLRVAVEGGKPHSMLLWGPPGVGKTTLARILAQSFNAQFLPVSAVFSGVKDIREAIDKAEIALQQGRATILFVDEVHRFNKAQQDAFLPHVESGLLTFIGATTENPSFEVNPALLSRAQVYVLQPLSSDDLKKLIAKVLALPEYQEFTIETDAQKLLVNTVDGDARRLLNLLEQLLRAADTRRLKNLTAEFLADSLGAQIRRFDKGGESFYNQISALHKSVRGSHPNAALYWFCRMLDGGTDPRYLARRIVRIAWEDIGLADPRALQIANDAAATFERLGSPEGELALAQAVLYLAAAAKSNAGYKAYNQMRHFVKENASDEVPVHLRNAPTKLMKELGYGREYRYAHDEPNAYAAGESYMPDGLDEPDFYQPVPRGLEIKIGEKLAWLKSLDEEVLKAEGHHHHHH | soluble
MSLTEEFVNKEDALKNYNAKEFRTPDGYTSDMILTTVKELNGKPTLHILLIKRSLTNAEGKPNMEGGKWAVPGGFVDENESAEQAAERELEEETSLTDIPLIPFGVFDKPGRDPRGWIISRAFYAIVPPEALEKRAAGDDAAEIGLFPMTEALELPLAFDHLDMLKKAFSAITEEFLLTTAIRDFLPETFSAELLYQTLEGCTKPGILPDEVEFMENIEYLPYLEKVGDLYRFNADAEAGSIYFEGHHHHHH | soluble
MSLTEFLERNAALYGSEKCLTEINLDLQESHNVIWREYELIENNPAGEYRRDMTWKVFDEKANRFANLLIKRGIKKGDKVAILLMNCLEWLPIYFGILKAGAVAVPLNFRYTAEEIKYCLELSDSIALVFGPEFIGRIENIYDQIIPKIKLLLFAGENRPSFAESYDRLTANCPSEAPKVEITDDDDAAIYFSSGTTGFPKAILHAHRSLVSACYTEQKHHGQTREDNFLCIPPLYHTGAKMHWFGSLLSGSKAVLLRGIKPEWILRTVSEEKITIVWLLVPWAQDILDAIERGDVKLEDYDLSQWRLMHIGAQPVPPSLIRRWKKYFPHHLYDTNYGLSESAGPGCVHLGVENIHKVGAIGLPGYNWEAKIVDENGCPVKQGEVGELAVKGPGVMKCYYKDPEATAAVLKDGWLLTGDMARMDEDGFIYLVDRKKDVIISGGENIYPVQIEDFLRSHEAIKDAAVIGLPDKRLGEIAAAIIELKPGFECTEEEINKFCLVLPRYKRPRKIIFDKVPRNPTGKIEKPRLREKYGVVALVEAETEGHHHHHH | soluble
MSLTEILIVEDDDIIATLIERFLLQREYVVCAKVATGEDALYKAAEHLPDLVLMDINLAGKIDGITATKFITAIFHIPVIFLSGQDDETTLERATMAEPASFIIKPFNAKDLYSNIEIALHNDREGHHHHHH | not soluble
MSLTEKKCTVMLSKFKRNKHQQHLAQLPKISQSVDDVDFFYAPADFRETLLEKIASAKQRICIVALYLEQDDGGKGILNALYEAKRQRPELDVRVLVDWHRAQRGRIGAAASNTNADWYCRMAQENPGVDVPVYGVPINTREALGVLHFKGFIIDDSVLYSGASLNDVYLHQHDKYRYDRYHLIRNRKMSDIMFEWVTQNIMNGRGVNRLDDVNRPKSPEIKNDIRLFRQELRDAAYHFQGDADNDQLSVTPLVGLGKSSLLNKTIFHLMPCAEQKLTICTPYFNLPAILVRNIIQLLREGKKVEIIVGDKTANDFYIPEDEPFKIIGALPYLYEINLRRFLSRLQYYVNTDQLVVRLWKDDDNTYHLKGMWVDDKWMLITGNNLNPRAWRLDLENAILIHDPQLELAPQREKELELIREHTTIVKHYRDLQSIADYPVKVRKLIRRLRRIRIDRLISRILEGHHHHHH | not soluble
MSLTEMLSTEDFDFDLPEELIAQTPLKDRASSRLLVVNKETGDMEDKHFHDILDELQPGDALVMNNTRVLPARLYGEKPETGGHLEVLLLTNTEGDTWETLIKPAKRAKVGTEIQFGDGRLKAVVKEELEHGGRIIEFKYDGIFLEILESLGEMPLPPYIKERLDDPDRYQTVYAEENGSAAAPTAGLHFTKELLEEIKAKGVHLVYLTLHVGLGTFRPVSVDNIEEHHMHSEFYRLTEEAAKQLNEVRQAGGRIVAVGTTSIRTLETIGTKFNGEIQADSGWTDIFITPGYQFKVVEAFSTNFHLPKSTLVMLVSAFAGKDLTLAAYQHAIEEKYRFFSFGDAMFIKEGGSHHHHHH | soluble
MSLTENKGTPEVGWSFDTRYTDLPSMMFSNVEPEPVEAPKLVILNDSLAQSLGLDPVALQHQNSIAVLAGNEVPKGAAPLAQAYAGHQFGHFTMLGDGRAILLGEQITPNGERFDIQLKGSGRTPYSRQGDGRAALGPMLREYIISEAMHALGIPTTRSLAVVTTGESVFRETVLPGAILTRVAASHIRVGTFQFVANAGSEEELKALADYTLARHFPEVEADRENRYLALLQKVIKRQAELIAKWQLVGFIHGVMNTDNMTISGETIDYGPCAFMDVYDPETVFSSIDTRGRYAYGNQPRIGAWNLARFAEALLPLLADDQDEAIKLAEAEISNYAEQFEHHWLNGMRAKLGLFNEESEDLSLIKDLLEVMHKHKADFTNTFRALTFDEQEETGLHDKLEFTEWHERWQARLGRQEQTKDDSHNLMKMSNPAVIPRNHRVEEALEAAVEQEDYQVMERLLKVLANPFAHSPEQKAYAKLPAPCAIPYRTYCGTEGHHHHHH | not soluble
MSLTKAQDHDAAVLYGYFRSSASYRVRIALNLKNIIVAQRYVHLRNGEQNLEAFRWINPAGMVPYWSEGEFNLGQSLAIIEYLDETHPEPPLLPKDPKARAIVREIAYAVACDIHPIGNLRILKRLTELGVDEVDRARWSKEWVEQGFAAIEARLAQTPGPFAYGDRPTLADICIVPQIFNARRFDADLAPFERIRQIEAEAMKLDAFVAAEPGRQPDAEGHHHHHH | soluble
MSLTKIKNIKTKVYQWNGKTVPPKNNFCTNASDILYEKSDAMGSFRFHEWLICEIETDDGVFGIGNAALAPQIVKKTIDTYLKPLVVGEDPFDYAYIWEKMYRRTHAWGRRGIGMIAMSAIDIGIWDILGKITNKPVFKLLGGRTKEKIPVYASKLYSQPLNELQKEAETYKNQGFKMYKMSFGWGPKDGPEGMKKNIDLVEAVREVIGDDSDLMLESYMGWNLDYSKRIIPKLIKFNPRWLEEPVIADDIAGYSELNKMGVIPISGGEHEFNLFGFKQLLDLKAVSYIQYDTNRVGGITAAQKINALAESFQVPVVPHAGQMHNYHLTMANFNCPISEYFPVHDVEVGNELFYYIFEGDPEPKNGNINLDDNIPGLGLKISDKYKSDFNIIDEGHHHHHH | soluble
MSLTNHHPSSTGPQHPYRAGWIHFTNVAPILDSLELPPGVTAITGVPTQMNAALLSGEVDIANVSAVEFIRHADTLAALPDFSVAVLGPVYSVNLFHTCPLPELRRVALTSQSAMSVALLEVLLRQKGLSPVLERAEGTAESLLAAGYDGVLRIGDDALREWYGVVGPLTPERTMTSLPHTGRGITVTDLAQEWFDLTGHPFTFAVWAYRKDNPPPAALLQAMREARRRGIGHLAEVSQRHAEKLGLPERVVQHYLWNFRYHLEAPDRLGLREFADLAVPGHAELTFGAREEAEGHHHHHH | soluble
MSLTNNNHRLISNSFSTYSIDTSRAYENYLTHWTEWKNNRIQEEQRDIAFQRLVSCLQNQETNLDLSELGLTTLPEIPPGIKSINISKNNLSLIPPLPASLTQLNVSYNRLIELPALPQGLKLLNASHNQLITLPTLPISLKELHVSNNQLCSLPVLPELLETLDVSCNGLAVLPPLPFSLQEISAIGNLLSELPPLPHNIHSIWAIDNMLTDIPYLPENLRNGYFDINQISHIPESILNLRNECSIDISDNPLSSHALQSLQRLTSSPDYHGPQIYFSMSDGQQNTLHRPLADAVTAWFPENKQSDVSQIWHAFEHEEHANTFSAFLDRLSDTVSARNTSGFREQVAAWLEKLSASAELRQQSFAVAADATESCEDRVALTWNNLRKTLLVHQASEGLFDNDTGALLSLGREMFRLEILEDIARDKVRTLHFVDEIEVYLAFQTMLAEKLQLSTAVKEMRFYGVSGVTANDLRTAEAMVRSREENEFTDWFSLWGPWHAVLKRTEADRWALAEEQKYEMLENEYPQRVADRLKASGLSGDADAEREAGAQVMRETEQQIYRQLTDEVLALRLPENGSQLHHSEGHHHHHH | soluble
